US20220135638A1 (Takeda / Millennium, published 2022)
Numbered stars: 1 amine (or outer) side, 2 acyl side, 3 side chain; on linkers, the order of the positions; unused ones are H or OH. Square brackets hold non-standard residues; d marks the D form. Primed or numbered codes have the meaning given here. Side chains are listed from the residue outwards. Ends that are not written are not given here. * marks the point of attachment. C20 diacid = O=C(O)CCCCCCCCCCCCCCCCCCC(=O)*; C16 diacid = O=C(O)CCCCCCCCCCCCCCC(=O)*; γGlu = O=C(O)[C@H](CCC(=O)[*:2])N[*:1]; Iva = CC[C@](C)(N)C(=O)O; PEG3′ = not defined here; Aib = CC(C)(N)C(=O)O

T1: full-length human GIPR (GenBank NM_000164) with an N-terminal FLAG tag on HEK-293T cells (human), P48546
T1 chain: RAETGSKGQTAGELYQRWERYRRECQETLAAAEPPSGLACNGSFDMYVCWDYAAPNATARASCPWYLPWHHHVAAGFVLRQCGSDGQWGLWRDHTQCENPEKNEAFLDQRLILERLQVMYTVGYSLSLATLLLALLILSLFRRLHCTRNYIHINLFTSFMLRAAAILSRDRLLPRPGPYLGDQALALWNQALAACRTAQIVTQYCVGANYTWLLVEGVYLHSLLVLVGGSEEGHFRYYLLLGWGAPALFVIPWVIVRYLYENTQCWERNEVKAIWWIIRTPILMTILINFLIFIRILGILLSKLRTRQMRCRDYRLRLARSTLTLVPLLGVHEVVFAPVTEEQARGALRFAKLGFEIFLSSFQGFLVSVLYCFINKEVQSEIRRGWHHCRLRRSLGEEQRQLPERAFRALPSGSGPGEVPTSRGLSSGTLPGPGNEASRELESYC

T2: full-length human GLP-1R (GenBank NM_002062) with an N-terminal FLAG tag on HEK-293T cells (human), P43220
T2 chain: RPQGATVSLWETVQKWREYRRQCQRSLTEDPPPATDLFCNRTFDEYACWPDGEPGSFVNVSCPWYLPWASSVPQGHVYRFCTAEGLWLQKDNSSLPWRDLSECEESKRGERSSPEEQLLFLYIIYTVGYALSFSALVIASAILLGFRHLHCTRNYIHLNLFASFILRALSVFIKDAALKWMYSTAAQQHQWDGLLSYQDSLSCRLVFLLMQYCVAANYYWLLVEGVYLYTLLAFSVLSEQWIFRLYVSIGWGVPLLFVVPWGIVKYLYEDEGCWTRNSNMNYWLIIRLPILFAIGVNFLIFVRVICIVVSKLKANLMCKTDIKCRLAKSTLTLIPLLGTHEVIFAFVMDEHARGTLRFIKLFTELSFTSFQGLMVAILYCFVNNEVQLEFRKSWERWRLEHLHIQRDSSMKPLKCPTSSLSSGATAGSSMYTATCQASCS


Columns and labels:
[1] = target: T1, full-length human GIPR (GenBank …); test: cell-based or functional assay
[2] = target: T2, full-length human GLP-1R (GenBank …); test: cell-based or functional assay

Row | Binder | GIP EC50(pM) [1] | GLP EC50 [2]
1 | Y[Aib]EGTFISDYSIALDR[Aib]HQ[Aib]NFVNW[Iva]LAQRPSK([PEG3′-PEG3′-γGlu-C16 diacid])GAPPPS (ends and bridges not checked) [Compound No. 491] | 0.7 pM | > 1000 nM
2 | Y[Aib]EGTFISDYSIALDR[Aib]HQ[Aib]NFVNW[Iva]LAQRPSSK([PEG3′-PEG3′-γGlu-C20 diacid])APPPS (ends and bridges not checked) [Compound No. 496] | 1.09 pM | > 1000 nM
3 | Y[Aib]EGTFISDYSIALDR[Aib]HQ[Aib]NFVNW[Iva]LAQRPSK([PEG3′-PEG3′-γGlu-Ida])GAPPPS (ends and bridges not checked) [Compound No. 492] | 1.22 pM | > 1000 nM
4 | Y[Aib]EGTFISDYSIALDR[Aib]HQ[Aib]NFVNW[Iva]LAQRK([PEG3′-PEG3′-γGlu-C20 diacid])SSGAPPPS (ends and bridges not checked) [Compound No. 487] | 1.38 pM | > 1000 nM
5 | Y[Aib]EGTFISDYSIALDR[Aib]HQ[Aib]NFVNW[Iva]LAQRPSSGK([PEG3′-PEG3′-γGlu-Ida])PPPS (ends and bridges not checked) [Compound No. 498] | 0.6 pM | > 1000 nM
6 | Y[Aib]EGTFISDYSIALDR[Aib]HQ[Aib]NFVNW[Iva]LAQRPSSGK([PEG3′-PEG3′-γGlu-C16 diacid])PPPS (ends and bridges not checked) [Compound No. 497] | 0.4 pM | > 1000 nM
7 | Y[Aib]EGTFISDYSIALDR[Aib]HQ[Aib]NFVNW[Iva]LAQRKSSGAPPPS (not fully specified (residue 31); ends and bridges not checked) [Compound No. 470] | 1.12 pM | > 1000 nM
8 | Y[Aib]EGTFISDYSIALDR[Aib]HQ[Aib]NFVNW[Iva]LAQRPSSGAPPK([PEG3′-PEG3′-γGlu-C20 diacid])S (ends and bridges not checked) [Compound No. 478] | 1.36 pM | > 1000 nM
9 | Y[Aib]EGTFISDYSIALDR[Aib]HQ[Aib]NFVNW[Iva]LAQRPK([PEG3′-PEG3′-γGlu-C16 diacid])SGAPPPS (ends and bridges not checked) [Compound No. 488] | 0.75 pM | > 1000 nM
10 | Y[Aib]EGTFISDYSIALDR[Aib]HQ[Aib]NFVNW[Iva]LAQRPSSK([PEG3′-PEG3′-γGlu-C16 diacid])APPPS (ends and bridges not checked) [Compound No. 494] | 0.5 pM | > 1000 nM
11 | Y[Aib]EGTFISDYSIALDR[Aib]HQ[Aib]NFVNW[Iva]LAQRK([PEG3′-PEG3′-γGlu-Ida])SSGAPPPS (ends and bridges not checked) [Compound No. 486] | 0.7 pM | > 1000 nM
12 | Y[Aib]EGTFISDYSIALDR[Aib]HQ[Aib]NFVNW[Iva]LAQRPSSGAPPPK([PEG3′-PEG3′-γGlu-C16 diacid]) (ends and bridges not checked) [Compound No. 479] | 0.42 pM | > 1000 nM
13 | Y[Aib]EGTFISDYSIALDR[Aib]HQ[Aib]NFVNW[Iva]LAQRPSK([PEG3′-PEG3′-γGlu-C20 diacid])GAPPPS (ends and bridges not checked) [Compound No. 493] | 1.22 pM | > 1000 nM
14 | Y[Aib]EGTFISDYSIALDR[Aib]HQ[Aib]NFVNW[Iva]LAQRPSSGAPPK([PEG3′-PEG3′-γGlu-C16 diacid])S (ends and bridges not checked) [Compound No. 476] | 0.74 pM | > 1000 nM
15 | Y[Aib]EGTFISDYSIALDR[Aib]HQ[Aib]NFVNW[Iva]LAQRKSSGAPPPS (not fully specified (residue 31); ends and bridges not checked) [Compound No. 469] | 0.62 pM | > 1000 nM
16 | Y[Aib]EGTFISDYSIALDR[Aib]HQ[Aib]NFVNW[Iva]LAQRPSSGAK([PEG3′-PEG3′-γGlu-C20 diacid])PPS (ends and bridges not checked) [Compound No. 502] | 1.78 pM | > 1000 nM
17 | Y[Aib]EGTFISDYSIALDR[Aib]HQ[Aib]NFVNW[Iva]LAQRPSSGAPPPK([PEG3′-PEG3′-γGlu-Ida]) (ends and bridges not checked) [Compound No. 480] | 0.5 pM | > 1000 nM
18 | Y[Aib]EGTFISDYSIALDR[Aib]HQ[Aib]NFVNW[Iva]LAQRPSSGAK([PEG3′-PEG3′-γGlu-C16 diacid])PPS (ends and bridges not checked) [Compound No. 500] | 0.59 pM | > 1000 nM
19 | Y[Aib]EGTFISDYSIALDR[Aib]HQ[Aib]NFVNW[Iva]LAQRPSSGAPK([PEG3′-PEG3′-γGlu-C16 diacid])PS (ends and bridges not checked) [Compound No. 503] | 0.49 pM | > 1000 nM
20 | Y[Aib]EGTFISDYSIALDR[Aib]HQ[Aib]NFVNW[Iva]LAQRK([PEG3′-PEG3′-γGlu-C16 diacid])SSGAPPPS (ends and bridges not checked) [Compound No. 485] | 0.28 pM | > 1000 nM
21 | Y[Aib]EGTFISDYSIALDR[Aib]HQ[Aib]NFVNW[Iva]LAQRPSSGK([PEG3′-PEG3′-γGlu-C20 diacid])PPPS (ends and bridges not checked) [Compound No. 499] | 1.17 pM | > 1000 nM
22 | Y[Aib]EGTFISDYSIALDR[Aib]HQ[Aib]NFVNW[Iva]LAQRPSSGAPK([PEG3′-PEG3′-γGlu-Ida])PS (ends and bridges not checked) [Compound No. 504] | 1.08 pM | > 1000 nM
23 | Y[Aib]EGTFISDYSIALDR[Aib]HQ[Aib]NFVNW[Iva]LAQRPK([PEG3′-PEG3′-γGlu-C20 diacid])SGAPPPS (ends and bridges not checked) [Compound No. 490] | 1.88 pM | > 1000 nM
24 | Y[Aib]EGTFISDYSIALDR[Aib]HQ[Aib]NFVNW[Iva]LAQRPSSGAK([PEG3′-PEG3′-γGlu-Ida])PPS (ends and bridges not checked) [Compound No. 501] | 0.92 pM | > 1000 nM
25 | Y[Aib]EGTFISDYSIALDR[Aib]HQ[Aib]NFVNW[Iva]LAQRPK([PEG3′-PEG3′-γGlu-Ida])SGAPPPS (ends and bridges not checked) [Compound No. 489] | 0.96 pM | > 1000 nM
26 | Y[Aib]EGTFISDYSIALDR[Aib]HQ[Aib]NFVNW[Iva]LAQRPSSK([PEG3′-PEG3′-γGlu-Ida])APPPS (ends and bridges not checked) [Compound No. 495] | 0.86 pM | > 1000 nM
27 | Y[Aib]EGTFISDYSIALDR[Aib]HQ[Aib]NFVNW[Iva]LAQRPSSGAPPPK([PEG3′-PEG3′-γGlu-C20 diacid]) (ends and bridges not checked) [Compound No. 481] | 0.61 pM | > 1000 nM
28 | Y[Aib]EGTFISDYSIALDR[Aib]HQ[Aib]NFVNW[Iva]LAQRPSSGAPPK([PEG3′-PEG3′-γGlu-Ida])S (ends and bridges not checked) [Compound No. 477] | 0.64 pM | > 1000 nM
